FireProtDB (doi:10.1002/cbic.201402128)

B1: Haloalkane dehalogenase, D4Z2G1 (parent)
chain: MSLGAKPFGEKKFIEIKGRRMAYIDEGTGDPILFQHGNPTSSYLWRNIMPHCAGLGRLIACDLIGMGDSDKLDPSGPERYAYAEHRDYLDALWEALDLGDRVVLVVHDWGSALGFDWARRHRERVQGIAYMEAIAMPIEWADFPEQDRDLFQAFRSQAGEELVLQDNVFVEQVLPGLILRPLSEAEMAAYREPFLAAGEARRPTLSWPRQIPIAGTPADVVAIARDYAGWLSESPIPKLFINAEPGALTTGRMRDFCRTWPNQTEITVAGAHFIQEDSPDEIGAAIAAFVRRLRPA

Variants of: B1
Details: Sphingobium indicum (strain DSM 16413 / CCM 7287 / MTCC 6362 / UT26 / NBRC 101211 / UT26S); pH 7.5; Thermal; fluorescence; Na-Hepes 50 mM; reversible: no; structure 1MJ5; whole UniProt chain shown

Variant	Tm	change of melting temperature, mutant - wild type (higher = more stable)
MSLGAKPFGEKKFIEIKGRRMAYIDEGTGDPILFQHGNPTSSYLWRNIMPHCAGLGRLIACDLIGMGDSDKLDPSGPERYAYAEHRDYLDALWEALDLGTRVVLVVHDWGSALGFDWARRHRERVQGIAYMEAIAMPIEWADFPEQDRDLFQAFRSQAGEELVLQDNVFVEQVLPGLILRPLSEAEMAAYREPFLAAGEARRPTLSWPRQIPIAGTPADVVAIARDYAGWLSESPIPKLFINAEPGALTTGRMRDFCRTWPNQTEITVAGAHFIQEDSPDEIGAAIAAFVRRLRPA [D100T]	51 °C	0 °C
MSLGAKPFGEKKFIEIKGRRMAYIDEGTGDPILFQHGNPTSSYLWRNIMPHCAGLGRLIACDLIGMGDSDKLDPSGPERYAYAEHRDYLDALWEALDLGDHVVLVVHDWGSALGFDWARRHRERVQGIAYMEAIAMPIEWADFPEQDRDLFQAFRSQAGEELVLQDNVFVEQVLPGLILRPLSEAEMAAYREPFLAAGEARRPTLSWPRQIPIAGTPADVVAIARDYAGWLSESPIPKLFINAEPGALTTGRMRDFCRTWPNQTEITVAGAHFIQEDSPDEIGAAIAAFVRRLRPA [R101H]	51 °C	0 °C
MSLGAKPFGEKKFIEIKGRRMAYIDEGTGDPILFQHGNPTSSYLWRNIMPHCAGLGRLIACDLIGMGDSDKLDPSGPERYAYAEHRKYLDALWEALDLGDRVVLVVHDWGSALGFDWARRHRERVQGIAYMEAIAMPIEWADFPEQDRDLFQAFRSQAGEELVLQDNVFVEQVLPGLILRPLSEAEMAAYREPFLAAGEARRPTLSWPRQIPIAGTPADVVAIARDYAGWLSESPIPKLFINAEPGALTTGRMRDFCRTWPNQTEITVAGAHFIQEDSPDEIGAAIAAFVRRLRPA [D87K]	50 °C	-1 °C
MSLGAKPFGEKKFIEIKGRRMAYIDEGTGDPILFQHGNPTSSYLWRNIMPHCAGLGRLIACDLIGMGDSDKLDPSGPERYAYAEHRLYLDALWEALDLGDRVVLVVHDWGSALGFDWARRHRERVQGIAYMEAIAMPIEWADFPEQDRDLFQAFRSQAGEELVLQDNVFVEQVLPGLILRPLSEAEMAAYREPFLAAGEARRPTLSWPRQIPIAGTPADVVAIARDYAGWLSESPIPKLFINAEPGALTTGRMRDFCRTWPNQTEITVAGAHFIQEDSPDEIGAAIAAFVRRLRPA [D87L]	51.5 °C	0.5 °C
MSLGAKPFGEKKFIEIKGRRMAYIDEGTGDPILFQHGNPTSSYLWRNIMPHCAGLGRLIACDLIGMGDSDKLDPSGPERYAYAEHRDYLDALWEALDLGDRVVLVVHDWGSALGFDWARRHRSRVQGIAYMEAIAMPIEWADFPEQDRDLFQAFRSQAGEELVLQDNVFVEQVLPGLILRPLSEAEMAAYREPFLAAGEARRPTLSWPRQIPIAGTPADVVAIARDYAGWLSESPIPKLFINAEPGALTTGRMRDFCRTWPNQTEITVAGAHFIQEDSPDEIGAAIAAFVRRLRPA [E123S]	51 °C	0 °C
MSLGAKPFGEKKFIEIKGRRMAYIDEGTGDPILFQHGNPTSSYLWRNIMPHCAGLGRLIACDLIGMGDSDKLDPSGPERYAYAEHRDYLDALWEALDLGDRVVLVVHDWGSALGFDWARRHRERVQGIAYMEAIAMPITWADFPEQDRDLFQAFRSQAGEELVLQDNVFVEQVLPGLILRPLSEAEMAAYREPFLAAGEARRPTLSWPRQIPIAGTPADVVAIARDYAGWLSESPIPKLFINAEPGALTTGRMRDFCRTWPNQTEITVAGAHFIQEDSPDEIGAAIAAFVRRLRPA [E139T]	60.5 °C	9.5 °C
MSLGAKPFGEKKFIEIKGRRMAYIDEGTGDPILFQHGNPTSSYLWRNIMPHCAGLGRLIACDLIGMGDSDKLDPSGPERYAYAEHRDYLDALWEALDLGDRVVLVVHDWGSALGFDWARRHRERVQGIAYMEAIAMPIQWADFPEQDRDLFQAFRSQAGEELVLQDNVFVEQVLPGLILRPLSEAEMAAYREPFLAAGEARRPTLSWPRQIPIAGTPADVVAIARDYAGWLSESPIPKLFINAEPGALTTGRMRDFCRTWPNQTEITVAGAHFIQEDSPDEIGAAIAAFVRRLRPA [E139Q]	58.5 °C	7.5 °C
MSLGAKPFGEKKFIEIKGRRMAYIDEGTGDPILFQHGNPTSSYLWRNIMPHCAGLGRLIACDLIGMGDSDKLDPSGPERYAYAEHRDYLDALWEALDLGDRVVLVVHDWGSALGFDWARRHRERVQGIAYMEAIAMPIHWADFPEQDRDLFQAFRSQAGEELVLQDNVFVEQVLPGLILRPLSEAEMAAYREPFLAAGEARRPTLSWPRQIPIAGTPADVVAIARDYAGWLSESPIPKLFINAEPGALTTGRMRDFCRTWPNQTEITVAGAHFIQEDSPDEIGAAIAAFVRRLRPA [E139H]	61.5 °C	10.5 °C
MSLGAKPFGEKKFIEIKGRRMAYIDEGTGDPILFQHGNPTSSYLWRNIMPHCAGLGRLIACDLIGMGDSDKLDPSGPERYAYAEHRDYLDALWEALDLGDRVVLVVHDWGSALGFDWARRHRERVQGIAYMEAIAMPIKWADFPEQDRDLFQAFRSQAGEELVLQDNVFVEQVLPGLILRPLSEAEMAAYREPFLAAGEARRPTLSWPRQIPIAGTPADVVAIARDYAGWLSESPIPKLFINAEPGALTTGRMRDFCRTWPNQTEITVAGAHFIQEDSPDEIGAAIAAFVRRLRPA [E139K]	58.5 °C	7.5 °C
MSLGAKPFGEKKFIEIKGRRMAYIDEGTGDPILFQHGNPTSSYLWRNIMPHCAGLGRLIACDLIGMGDSDKLDPSGPERYAYAEHRDYLDALWEALKLGDRVVLVVHDWGSALGFDWARRHRERVQGIAYMEAIAMPIEWADFPEQDRDLFQAFRSQAGEELVLQDNVFVEQVLPGLILRPLSEAEMAAYREPFLAAGEARRPTLSWPRQIPIAGTPADVVAIARDYAGWLSESPIPKLFINAEPGALTTGRMRDFCRTWPNQTEITVAGAHFIQEDSPDEIGAAIAAFVRRLRPA [D97K]	50.5 °C	-0.5 °C
MSLGAKPFGEKKFIEIKGRRMAYIDEGTGDPILFQHGNPTSSYLWRNIMPHCAGLGRLIACDLIGMGDSDKLDPSGPERYAYAEHRDYLDALWEALNLGDRVVLVVHDWGSALGFDWARRHRERVQGIAYMEAIAMPIEWADFPEQDRDLFQAFRSQAGEELVLQDNVFVEQVLPGLILRPLSEAEMAAYREPFLAAGEARRPTLSWPRQIPIAGTPADVVAIARDYAGWLSESPIPKLFINAEPGALTTGRMRDFCRTWPNQTEITVAGAHFIQEDSPDEIGAAIAAFVRRLRPA [D97N]	50 °C	-1 °C
MSLGAKPFGEKKFIEIKGRRMAYIDEGTGDPILFQHGNPTSSYLWRNIMPHCAGLGRLIACDLIGMGDSDKLDPSGPERYAYAEHRDYLDALWEALRLGDRVVLVVHDWGSALGFDWARRHRERVQGIAYMEAIAMPIEWADFPEQDRDLFQAFRSQAGEELVLQDNVFVEQVLPGLILRPLSEAEMAAYREPFLAAGEARRPTLSWPRQIPIAGTPADVVAIARDYAGWLSESPIPKLFINAEPGALTTGRMRDFCRTWPNQTEITVAGAHFIQEDSPDEIGAAIAAFVRRLRPA [D97R]	51 °C	0 °C
MSLGAKPFGEKKFIEIKGRRMAYIDEGTGDPILFQHGNPTSSYLWRNIMPHCAGLGRLIACDLIGMGDSDKLDPSGPERYAYAEHRDYLDALWEALDLGDRVILVVHDWGSALGFDWARRHRERVQGIAYMEAIAMPIEWADFPEQDRDLFQAFRSQAGEELVLQDNVFVEQVLPGLILRPLSEAEMAAYREPFLAAGEARRPTLSWPRQIPIAGTPADVVAIARDYAGWLSESPIPKLFINAEPGALTTGRMRDFCRTWPNQTEITVAGAHFIQEDSPDEIGAAIAAFVRRLRPA [V103I]	51 °C	0 °C
MSLGAKPFGEKKFIEIKGRRMAYIDEGTGDPILFQHGNPTSSYLWRNIMPHCAGLGRLIACDLIGMGDSDKLDPSGPERYAYAEHLDYLDALWEALDLGDRVVLVVHDWGSALGFDWARRHRERVQGIAYMEAIAMPIEWADFPEQDRDLFQAFRSQAGEELVLQDNVFVEQVLPGLILRPLSEAEMAAYREPFLAAGEARRPTLSWPRQIPIAGTPADVVAIARDYAGWLSESPIPKLFINAEPGALTTGRMRDFCRTWPNQTEITVAGAHFIQEDSPDEIGAAIAAFVRRLRPA [R86L]	49 °C	-2 °C
MSLGAKPFGEKKFIEIKGRRMAYIDEGTGDPILFQHGNPTSSYLWRNIMPHCAGLGRLIACDLIGMGDSDKLDPSGPERYAYAEHRDYLDALWEALDLGDRVVLVVHDWGSALGFDWARRHRERVQGIAYMEVIAMPIEWADFPEQDRDLFQAFRSQAGEELVLQDNVFVEQVLPGLILRPLSEAEMAAYREPFLAAGEARRPTLSWPRQIPIAGTPADVVAIARDYAGWLSESPIPKLFINAEPGALTTGRMRDFCRTWPNQTEITVAGAHFIQEDSPDEIGAAIAAFVRRLRPA [A133V]	51 °C	0 °C
MSLGAKPFGEKKFIEIKGRRMAYIDEGTGDPILFQHGNPTSSYLWRNIMPHCAGLGRLIACDLIGMGDSDKLDPSGPERYAYAEHRDYLDALWEALDLGDRVVLVLHDWGSALGFDWARRHRERVQGIAYMEAIAMPIEWADFPEQDRDLFQAFRSQAGEELVLQDNVFVEQVLPGLILRPLSEAEMAAYREPFLAAGEARRPTLSWPRQIPIAGTPADVVAIARDYAGWLSESPIPKLFINAEPGALTTGRMRDFCRTWPNQTEITVAGAHFIQEDSPDEIGAAIAAFVRRLRPA [V106L]	50.5 °C	-0.5 °C
MSLGAKPFGEKKFIEIKGRRMAYIDEGTGDPILFQHGNPTSSYLWRNIMPHCAGLGRLIACDLIGMGDSDKLDPSGPERYAYAEHRDYLDALWEHLDLGDRVVLVVHDWGSALGFDWARRHRERVQGIAYMEAIAMPIEWADFPEQDRDLFQAFRSQAGEELVLQDNVFVEQVLPGLILRPLSEAEMAAYREPFLAAGEARRPTLSWPRQIPIAGTPADVVAIARDYAGWLSESPIPKLFINAEPGALTTGRMRDFCRTWPNQTEITVAGAHFIQEDSPDEIGAAIAAFVRRLRPA [A95H]	50.5 °C	-0.5 °C
MSLGAKPFGEKKFIEIKGRRMAYIDEGTGDPILFQHGNPTSSYLWRNIMPHCAGLGRLIACDLIGMGDSDKLDPSGPERYAYAEHRDYLDALWEALDLGDRVVLVCHDWGSALCFDWARRHRERVQGIAYMEAIAMPIEWADFPEQDRDLFQAFRSQAGEELVLQDNVFVEQVLPGLILRPLSEAEMAAYREPFLAAGEARRPTLSWPRQIPIAGTPADVVAIARDYAGWLSESPIPKLFINAEPGALTTGRMRDFCRTWPNQTEITVAGAHFIQEDSPDEIGAAIAAFVRRLRPA [V106C G114C]	50 °C	1 °C
MSLGAKPFGEKKFIEIKGRRMAYIDEGTGDPILFQHGNPTSSYLWRNIMPHCAGLGRLIACDLIGMGDSDKLDPSGPERYAYAEHRDYLDALWEALDLGDRVVLIVHDWGSALGFDWARRHRERVQGIAYMEAIAMPIEWADFPEQDRDLFQAFRSQAGEELVLQDNVFVEQVLPGLILRPLSEAEMAAYREPFLAAGEARRPTLSWPRQIPIAGTPADVVAIARDYAGWLSESPIPKLFINAEPGALTTGRMRDFCRTWPNQTEITVAGAHFIQEDSPDEIGAAIAAFVRRLRPA [V105I]	50 °C	-1 °C
MSLGAKPFGEKKFIEIKGRRMAYIDEGTGDPILFQHGNPTSSYLWRNIMPHCAGLGRLIACDLIGMGDSDKLDPSGPERYAYAEHRDYLDALWEALDLGDRVVLVVHDWGSALGFDWARRHRERVQGIVYMEAIAMPIEWADFPEQDRDLFQAFRSQAGEELVLQDNVFVEQVLPGLILRPLSEAEMAAYREPFLAAGEARRPTLSWPRQIPIAGTPADVVAIARDYAGWLSESPIPKLFINAEPGALTTGRMRDFCRTWPNQTEITVAGAHFIQEDSPDEIGAAIAAFVRRLRPA [A129V]	50 °C	-1 °C
